{"source": "patent US20230183661A1", "about": "“BICOMPATIBLE PEPTIDEBIOCOMPATIBLE PEPTIDES FOR INHIBITION OF AGGREGATION OF B-AMYLOID PROTEIN” (Catholic University Industry Academic Cooperation Foundation, priority 2017, published 2023)", "molecular_target": "β-amyloid (Aβ) overexpressed in nerve cells (UniProt P05067)", "test": "Co-IP from N2a cells, relative score"}
{"binder": "ATKAVCVLKGDGPVQGIINFEQKESNGPVKVWGSIKGLT", "note": "[Peptide 4 (β 1-3 fragment of SOD1)]", "values": [{"measurement": "Binding strength with β-amyloid", "result": 1}]}
